Measured values reported in patent US20260055205A1 (published 2026).
Numbering of substitutions follows the chain as printed.

B1: CD3.217 (bispecific antibody, V domains shown)
VH: EVQLVESGGGIVQPGGSLRLSCAASGFTFSTYAMNWVRQAPGKGLEWVGRIRSKYNDYATYYADSVKGRFTISRDDSKNTVYLQMNSLKTEDTAVYYCVRHENFGNSYVSWFAHWGQGTLVTVSS
VL: ELVVTQEPSLTVSPGGTVTLTCRSSNGAVTSSNYANWVQQKPGQAPRGLIGGTNKRAPGTPARFSGSLLGGKAALTLSGVQPEDEAVYYCALWYPNLWVFGGGTKLTVL
notes: paTCE with PSMA.262; also called AC3648
B2: CD3.218 (bispecific antibody, V domains shown)
VH: B1 VH with D57N, Y61T
VL: B1 VL
notes: paTCE with PSMA.262; also called AC3649
B3: CD3.240 (bispecific antibody, V domains shown)
VH: B1 VH with S30N, G49A, Y55K, D57N, Y61T, G68D
VL: B1 VL
notes: paTCE with PSMA.262; also called AC3671
B4: CD3.246 (bispecific antibody, V domains shown)
VH: B1 VH with S30N, G49A, S53T, D57N, Y61T, G68D, V81L
VL: B1 VL
notes: paTCE with PSMA.262; also called AC3677
B5: CD3.250 (bispecific antibody, V domains shown)
VH: B1 VH with S30N, S53T, D57N, Y61T, G68D
VL: B1 VL
notes: paTCE with PSMA.262; also called AC3681
B6: CD3.244 (bispecific antibody, V domains shown)
VH: B1 VH with S30N, D57N, Y58G, V81L
VL: B1 VL
notes: paTCE with PSMA.262; also called AC3675
B7: CD3.241 (bispecific antibody, V domains shown)
VH: B1 VH with S30N, G49A, Y55T, D57N, Y61T, G68D
VL: B1 VL
notes: paTCE with PSMA.262; also called AC3672
B8: CD3.223 (bispecific antibody, V domains shown)
VH: B1 VH with S30N, S53T, S87E
VL: B1 VL
notes: paTCE with PSMA.262; also called AC3654
B9: CD3.239 (bispecific antibody, V domains shown)
VH: B1 VH with S30N, G49A, Y55R, D57N, Y61T, G68D
VL: B1 VL
notes: paTCE with PSMA.262; also called AC3670
B10: CD3.232 (bispecific antibody, V domains shown)
VH: B1 VH with S53T
VL: B1 VL
notes: paTCE with PSMA.262; also called AC3663
B11: CD3.226 (bispecific antibody, V domains shown)
VH: B1 VH with S53T, D57N, Y61T, S87E
VL: B1 VL
notes: paTCE with PSMA.262; also called AC3657
B12: CD3.219 (bispecific antibody, V domains shown)
VH: B1 VH with S30N, S53T, Y55R, D57N, S87E
VL: B1 VL
notes: paTCE with PSMA.262; also called AC3650
B13: CD3.254 (bispecific antibody, V domains shown)
VH: B1 VH with S30N, S53T, D57N, Y61T, G68D, S87E
VL: B1 VL
notes: paTCE with PSMA.262; also called AC3685
B14: CD3.252 (bispecific antibody, V domains shown)
VH: B1 VH with S30N, Y55K, D57N, Y61T, G68D
VL: B1 VL
notes: paTCE with PSMA.262; also called AC3683
B15: CD3.231 (bispecific antibody, V domains shown)
VH: B1 VH with S30N, S53T
VL: B1 VL
notes: paTCE with PSMA.262; also called AC3662
B16: CD3.237 (bispecific antibody, V domains shown)
VH: B1 VH with S30N, D57N, Y58G, S87E
VL: B1 VL
notes: paTCE with PSMA.262; also called AC3668
B17: CD3.245 (bispecific antibody, V domains shown)
VH: B1 VH with S30N, D57N, Y58G, V81L, S87E
VL: B1 VL
notes: paTCE with PSMA.262; also called AC3676
B18: CD3.225 (bispecific antibody, V domains shown)
VH: B1 VH with S30N, S53T, D57N, Y61T, S87E
VL: B1 VL
notes: paTCE with PSMA.262; also called AC3656
B19: CD3.224 (bispecific antibody, V domains shown)
VH: B1 VH with S53T, S87E
VL: B1 VL
notes: paTCE with PSMA.262; also called AC3655
B20: CD3.255 (bispecific antibody, V domains shown)
VH: B1 VH with S30N, Y55R, D57N, Y61T, G68D, S87E
VL: B1 VL
notes: paTCE with PSMA.262; also called AC3686
B21: CD3.253 (bispecific antibody, V domains shown)
VH: B1 VH with S30N, Y55T, D57N, Y61T, G68D
VL: B1 VL
notes: paTCE with PSMA.262; also called AC3684
B22: CD3.258 (bispecific antibody, V domains shown)
VH: B1 VH with S30N, S53T, D57N, Y61T, G68D, V81L
VL: B1 VL
notes: paTCE with PSMA.262; also called AC3689
B23: CD3.238 (bispecific antibody, V domains shown)
VH: B1 VH with S30N, G49A, S53T, D57N, Y61T, G68D
VL: B1 VL
notes: paTCE with PSMA.262; also called AC3669
B24: CD3.220 (bispecific antibody, V domains shown)
VH: B1 VH with S53T, Y55R, D57N, S87E
VL: B1 VL
notes: paTCE with PSMA.262; also called AC3651
B25: CD3.235 (bispecific antibody, V domains shown)
VH: B1 VH with S30N, D57E
VL: B1 VL
notes: paTCE with PSMA.262; also called AC3666
B26: CD3.242 (bispecific antibody, V domains shown)
VH: B1 VH with S30N, V81L
VL: B1 VL
notes: paTCE with PSMA.262; also called AC3673
B27: CD3.234 (bispecific antibody, V domains shown)
VH: B1 VH with S53T, D57N, Y61T
VL: B1 VL
notes: paTCE with PSMA.262; also called AC3665
B28: CD3.249 (bispecific antibody, V domains shown)
VH: B1 VH with S30N, G49A, Y55T, D57N, Y61T, G68D, V81L
VL: B1 VL
notes: paTCE with PSMA.262; also called AC3680
B29: CD3.248 (bispecific antibody, V domains shown)
VH: B1 VH with S30N, G49A, Y55K, D57N, Y61T, G68D, V81L
VL: B1 VL
notes: paTCE with PSMA.262; also called AC3679
B30: CD3.257 (bispecific antibody, V domains shown)
VH: B1 VH with S30N, Y55T, D57N, Y61T, G68D, S87E
VL: B1 VL
notes: paTCE with PSMA.262; also called AC3688
B31: CD3.247 (bispecific antibody, V domains shown)
VH: B1 VH with S30N, G49A, Y55R, D57N, Y61T, G68D, V81L
VL: B1 VL
notes: paTCE with PSMA.262; also called AC3678
B32: CD3.233 (bispecific antibody, V domains shown)
VH: B1 VH with S30N, S53T, D57N, Y61T
VL: B1 VL
notes: paTCE with PSMA.262; also called AC3664
B33: CD3.222 (bispecific antibody, V domains shown)
VH: B1 VH with S53T, Y55T, D57N, S87E
VL: B1 VL
notes: paTCE with PSMA.262; also called AC3653
B34: CD3.221 (bispecific antibody, V domains shown)
VH: B1 VH with S30N, S53T, Y55T, D57N, S87E
VL: B1 VL
notes: paTCE with PSMA.262; also called AC3652
B35: CD3.236 (bispecific antibody, V domains shown)
VH: B1 VH with S30N, D57N, Y58G
VL: B1 VL
notes: paTCE with PSMA.262; also called AC3667

Biological target: T1, human CD3 epsilon (human, UniProt P07766 23-126, limits assumed)
T1 construct: also called huCD3e
Experiment: Octet, crude lysate
Method: Pool 2 consisted of paTCE molecules each containing PSMA.262 and one of 64 CD3.23 mutation combination variants. Stability and affinity of the individually expressed molecules in the form of crude lysate was evaluated by Octet. […] The binding of these anti-CD3 molecules (CD3.227, CD3.228, CD3.229 and CD3.230) to human and cynomolgus CD3 was measured by Octet and the Tm was measured by Differential Scanning Fluorimetry. All variants were paired with PSMA.262 except for CD3.23 which was paired with PSMA.5.

T1 sequence (P07766 23-126 limits assumed): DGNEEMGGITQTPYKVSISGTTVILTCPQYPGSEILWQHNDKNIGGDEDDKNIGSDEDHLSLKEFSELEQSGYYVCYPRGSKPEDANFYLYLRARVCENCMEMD

| Kd [nM] | Binder |
| --- | --- |
| 10.7 | B1 |
| 52.6 | B2 |
| 16.5 | B3 |
| 35.2 | B4 |
| 31 | B5 |
| 43.6 | B6 |
| 92.6 | B7 |
| 6 | B8 |
| 29.9 | B9 |
| 5.1 | B10 |
| 50.9 | B11 |
| 4.7 | B12 |
| 32.3 | B13 |
| 22.9 | B14 |
| 5.1 | B15 |
| 22.2 | B16 |
| 19.3 | B17 |
| 19.5 | B18 |

| Kd [nM] | Binder |
| --- | --- |
| 6.4 | B19 |
| 22.4 | B20 |
| 79.9 | B21 |
| 38 | B22 |
| 23.1 | B23 |
| 4.8 | B24 |
| 6.5 | B25 |
| 7.7 | B26 |
| 17.4 | B27 |
| 128 | B28 |
| 49.2 | B29 |
| 159 | B30 |
| 28.9 | B31 |
| 24.9 | B32 |
| 10.8 | B33 |
| 11.7 | B34 |
| 21.9 | B35 |
